According to the Human Domainome abundance scans (Beltran et al. 2025):

B1: Homeobox protein cut-like 1, residues 548 to 629; numbered along this chain, P39880 (parent)
chain: GEEMDTAEIARQVKEQLIKHNIGQRIFGHYVLGLSQGSVSEILARPKPWNKLTVRGKEPFHKMKQFLSDEQNILALRSIQGR

Variants of: B1
Assay: abundance fitness (aPCA) (normalised: wild type 0, dead -1); higher = more abundant; growth selection in yeast, the domain comes from the species named
Conditions: Homo sapiens

Abundance fitness of substitutions, site by site:
R82: N 0.076 | C -0.054 | M -0.047 | T -0.039 | A 0.013 | G 0.117 | S 0.011 | P 0.065 | Y -0.079 | V 0.024 | D -0.092 | L -0.06 | H 0.063 | W -0.149 | E 0.047 | Q 0.172 | K 0.123
G81: K -0.068 | Q 0.095 | V 0.024 | T 0.037 | A 0.044 | W -0.077 | R -0.021 | H 0.04 | S -0.028 | I 0.008 | C 0.027 | D 0.043 | N 0.117 | L -0.097 | P -0.103 | E 0.105 | Y -0.163 | F -0.138
Q80: S -0.017 | A 0.034 | D -0.089 | R -0.176 | N -0.026 | T -0.095 | I -0.098 | H -0.075 | E 0 | C -0.028 | V 0 | K -0.12 | W -0.307 | Y -0.188 | F -0.278 | L -0.126 | G -0.06 | P -0.098 | M -0.079
I79: A -0.047 | Y -0.097 | V 0.015 | L 0.028 | D -0.233 | G -0.203 | T -0.157 | F -0.086 | W -0.09 | E -0.058 | R -0.065 | C 0.003 | H -0.009 | K 0.038 | Q 0.011 | M 0.046 | P -0.229
S78: A 0.042 | K 0.044 | R 0.003 | G 0.003 | C -0.107 | T 0.005 | E 0.087 | W -0.201 | F -0.188 | D 0.097 | P -0.359 | I -0.066 | M -0.009 | Y -0.223 | V -0.139 | H -0.053 | N 0.018
R77: P -0.419 | S 0.041 | H -0.096 | W -0.336 | K 0.103 | L -0.073 | V -0.035 | G -0.086 | N -0.118 | M -0.096 | I -0.116 | Q 0.018
